Measured values taken from patent publication US20200282010A1, “IMMUNOGENIC COMPOSITIONS AND USES THEREFOR” (Epiaxis Therapeutics Pty Ltd, priority 2017, published 2020).

How the values were obtained:
PKC-β2 = target: T1, PKC-β2 (Homo sapiens, UniProt P05771); test: Nuclear localization of PKC-β2 (Fn/c, immunofluorescence), specificity; type: cell-based; details: MCF7 breast cancer cell line; FIG. 1D
T1 construct: endogenous in cells; host or cells: MCF7
From the text: (§1) FIG. 1 is a graphical, schematic and photographic representation showing that PKC-θ can be targeted for therapeutic intervention. A) Depicts the strength of binding of recombinant purified His6-PKC-θ to increasing concentrations of different subunits and subunit combinations (α2, α2β1, and β1) of the importin α/β heterodimer nuclear transport receptor using an AlphaScreen® binding assay as described in Wagstaff et al. (2011. Journal of Biomolecular Screening 16 (2):192-200). B-C) Depicts protein structure of PKC-θ indicating binding locations for the PKC-θ peptide inhibitor, PKCθi (RKEIDPPFRPKVK), including the nuclear localization sequence (NLS) of PKC-θ. D) The specificity of PKCθi was examined on cells treated with this peptide inhibitor. Cells were screened with primary antibodies to PKC-θ (T538p), PKC-β2, PKC-β1, PKC-α, PKC-ε and PKC-γ. The nuclear to cytoplasmic fluorescence ratio (Fn/c) using the equation: Fn/c=(Fn−Fb)/(Fc−Fb), where Fn is nuclear fluorescence, Fc is cytoplasmic fluorescence, and Fb is background fluorescence was used to determine the impact on nuclear translocation/localization. […] EC^50 of inhibitors calculated using GraphPad PRISM software. F) The PKC-θ kinase activity was measured using the PKC kinase activity kit from ENZO life sciences and recombinant PKC-θ; C27 is an inhibitor of PKC-θ kinase activity, which is disclosed in Jimenez et al. (2013. […]

PKC-β1 = target: T2, PKC-β1 (Homo sapiens, UniProt P05771); test: Nuclear localization of PKC-β1 (Fn/c, immunofluorescence), specificity; type: cell-based; details: MCF7 breast cancer cell line; FIG. 1D
T2 construct: endogenous in cells; host or cells: MCF7
T2 sequence (P05771 whole entry): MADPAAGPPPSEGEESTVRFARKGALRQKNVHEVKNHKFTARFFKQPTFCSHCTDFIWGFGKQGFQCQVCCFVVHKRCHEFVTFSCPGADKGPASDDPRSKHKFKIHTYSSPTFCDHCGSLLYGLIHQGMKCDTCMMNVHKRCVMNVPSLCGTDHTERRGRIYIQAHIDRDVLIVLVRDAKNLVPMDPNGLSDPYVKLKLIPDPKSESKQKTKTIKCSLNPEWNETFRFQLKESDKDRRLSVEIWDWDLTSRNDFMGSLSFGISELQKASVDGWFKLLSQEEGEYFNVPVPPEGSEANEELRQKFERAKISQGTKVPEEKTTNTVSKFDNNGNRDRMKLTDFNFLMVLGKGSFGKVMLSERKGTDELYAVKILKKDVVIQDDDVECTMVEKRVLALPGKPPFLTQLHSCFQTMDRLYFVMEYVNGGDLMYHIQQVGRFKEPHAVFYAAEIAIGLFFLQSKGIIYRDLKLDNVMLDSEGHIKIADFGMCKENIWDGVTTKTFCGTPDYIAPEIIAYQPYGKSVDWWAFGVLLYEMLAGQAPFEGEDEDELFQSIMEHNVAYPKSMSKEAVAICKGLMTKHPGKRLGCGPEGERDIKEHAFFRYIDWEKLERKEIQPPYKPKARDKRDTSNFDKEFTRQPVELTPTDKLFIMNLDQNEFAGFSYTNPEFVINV
From the text: as §1

PKC-α = target: T3, PKC-α (Homo sapiens, UniProt P17252); test: Nuclear localization of PKC-α (Fn/c, immunofluorescence), specificity; type: cell-based; details: MCF7 breast cancer cell line; FIG. 1D
T3 construct: endogenous in cells; host or cells: MCF7
From the text: as §1

[1] = system: CD8^+ T-cells isolated from melanoma patient's bloods; test: Immunofluorescence of nuclear PKC-θ and ZEB1 in patient CD8+ T-cells; type: cell-based, human; details: all patient samples; vehicle or PMA/CI; inhibitor 8 μm; FIG. 3
Description: FIG. 3 is a photographic representation depicting a PKC-θ resistance signature in CD8^+ T-cells. A-B) CD8s were isolated from melanoma patient liquid biopsies (CR=complete response, SD=Stable Disease, PD=progression of disease) and were stimulated with PMA/CI and pre-clinically screened with either vehicle control or PKCθi nuclear peptide inhibitor. Samples were fixed and immunofluorescence microscopy was performed on these cells with primary antibodies for ZEB1, PKC-θ, and CD8. Representative images for each dataset are shown. Graph represents the TNFI for PKC-Theta and TNFI for ZEB1 measured using ImageJ to select the nucleus minus background (n=>20 cells/sample). Plot profiles for each cohort for ZEB1 and PKC-θ are also depicted (RED=ZEB1, Green=PKC-θ) with the PCC indicated. Graphs depicting the % inhibition or induction based on protein expression where also plotted for each protein target relative to untreated sample. C-D) CD8s were isolated from melanoma patient liquid biopsies (CR=complete response, PR=partial response, PD=progression of disease) and were stimulated with PMA/CI and pre-clinically screened with either vehicle control or our PKCθi nuclear peptide inhibitor. […] Graph represents the TNFI for TNF-α and TNFI for IFN-γ measured using ImageJ to select the nucleus minus background (n=>20 cells/sample). […]

T1 sequence (P05771 1-673 isoform P05771-2): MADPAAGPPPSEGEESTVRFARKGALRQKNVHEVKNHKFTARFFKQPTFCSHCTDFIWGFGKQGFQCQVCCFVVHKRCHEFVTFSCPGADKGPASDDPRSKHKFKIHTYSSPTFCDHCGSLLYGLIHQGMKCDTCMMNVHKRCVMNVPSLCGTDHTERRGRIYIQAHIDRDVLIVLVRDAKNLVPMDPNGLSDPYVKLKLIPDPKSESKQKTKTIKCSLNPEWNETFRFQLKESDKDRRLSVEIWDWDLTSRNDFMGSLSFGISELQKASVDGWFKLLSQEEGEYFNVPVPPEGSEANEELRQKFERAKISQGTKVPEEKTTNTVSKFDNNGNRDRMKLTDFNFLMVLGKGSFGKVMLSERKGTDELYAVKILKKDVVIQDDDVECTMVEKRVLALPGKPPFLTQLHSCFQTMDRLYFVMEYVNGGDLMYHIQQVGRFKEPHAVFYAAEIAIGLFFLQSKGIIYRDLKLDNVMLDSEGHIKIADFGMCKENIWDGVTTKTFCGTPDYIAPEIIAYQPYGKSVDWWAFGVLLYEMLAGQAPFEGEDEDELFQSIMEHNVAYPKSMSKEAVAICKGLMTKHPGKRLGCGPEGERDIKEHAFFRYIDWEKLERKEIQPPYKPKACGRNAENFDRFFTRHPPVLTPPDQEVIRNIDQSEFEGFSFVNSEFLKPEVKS

RKEIDPPFRPKVK [PKCθi]
nuclear localization of PKC-β2 (PKC-β2): no effect | nuclear localization of PKC-β1 (PKC-β1): no effect | nuclear localization of PKC-α (PKC-α): no effect | expression of ZEB1 [1]: strikingly abrogated | expression of nuclear PKC-θ [1]: strikingly abrogated
